The target of data set [1] is wild-type yeast core particle (CP, 20S proteasome) (S. cerevisiae (endogenous in yeast)) (UniProt P23639).
Data set [2] deals with the molecule itself. Description: SEC.

Sequence of wild-type yeast core particle (CP, 20S proteasome) (S. cerevisiae (endogenous in yeast)) (P23639 whole entry, looked up): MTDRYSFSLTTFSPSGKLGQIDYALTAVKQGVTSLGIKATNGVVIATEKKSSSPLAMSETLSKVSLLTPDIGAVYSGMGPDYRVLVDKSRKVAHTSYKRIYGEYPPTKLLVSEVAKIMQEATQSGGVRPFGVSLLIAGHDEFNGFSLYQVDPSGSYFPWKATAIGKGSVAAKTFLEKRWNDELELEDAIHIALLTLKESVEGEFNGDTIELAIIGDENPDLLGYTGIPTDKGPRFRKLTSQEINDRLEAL

B1: Fub1 (S. cerevisiae PI31), endogenous untagged (natural protein, UniProt P25659 1-250, looked up)
chain: MIENKVELVAELVLESIGKTEVVSRHTEGTKSCQVSFRIKDSPSEKGSTSFLSELVVIQTLDDNDKYTVVIRHGTSITMACVVGYSDFKLPTELKWPLERESLPVEPDLKPIMTQLKRQTAGSADMPKFDDEYQAQARQNQGTAPLNPYPGLTVTEPSFANPAGGYADGDLYPVGTSHPDWSGGLPNPLGNPSSQGGMIFDPNRRPAPRREDMPPGWMPGSKYDEPFGPGSGGFGGSGSGGFGGSGSGFI
In turn, B1 registered an inhibition of CP peptidase activity at 2-fold molar excess of Fub1 in data set [1] of 50%. For the same molecule, the “stoichiometry N” value in data set [2] worked out at 2.

Values taken from PMC9399903 (Nature structural & molecular biology, 2022).
